# In US20090111753A1, “Nogo-A Polypeptide Fragments, Variant Nogo Receptor-1 Polypeptides, and Uses Thereof” (Yale University, priority 2004, published 2009):
# T1: AP-Nogo66 (Homo sapiens, UniProt Q9NQC3)
# T1 construct: made in house; NgR mutants: COS-7
# T1 sequence (Q9NQC3 1055-1120 limits assumed): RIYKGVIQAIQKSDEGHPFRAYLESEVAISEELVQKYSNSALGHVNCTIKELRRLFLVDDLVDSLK
# T2: AP-Lingo-1 (Homo sapiens, UniProt Q96FE5)
# T2 construct: made in house; NgR mutants: COS-7
# T2 sequence (Q96FE5 40-538 limits assumed): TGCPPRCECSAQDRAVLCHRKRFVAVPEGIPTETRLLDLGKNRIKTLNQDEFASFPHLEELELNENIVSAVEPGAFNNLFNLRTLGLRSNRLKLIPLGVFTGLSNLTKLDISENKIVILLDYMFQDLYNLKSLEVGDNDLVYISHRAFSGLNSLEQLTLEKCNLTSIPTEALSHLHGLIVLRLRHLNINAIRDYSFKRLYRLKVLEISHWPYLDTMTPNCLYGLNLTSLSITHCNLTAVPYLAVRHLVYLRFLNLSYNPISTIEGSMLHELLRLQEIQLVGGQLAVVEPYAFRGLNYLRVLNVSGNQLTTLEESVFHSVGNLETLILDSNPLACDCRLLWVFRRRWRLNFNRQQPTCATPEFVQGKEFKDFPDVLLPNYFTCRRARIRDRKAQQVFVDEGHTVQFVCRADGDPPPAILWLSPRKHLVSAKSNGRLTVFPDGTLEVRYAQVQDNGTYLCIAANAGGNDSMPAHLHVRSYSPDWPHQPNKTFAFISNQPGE
# T3: AP-B4C (Homo sapiens, UniProt Q9NQC3)
# T3 construct: a.a; 950-1018 (AmNg B4C); made in house; host or cells: AP ligand: HEK293T conditioned medium; NgR mutants: COS-7
# T3 sequence (Q9NQC3 950-1018): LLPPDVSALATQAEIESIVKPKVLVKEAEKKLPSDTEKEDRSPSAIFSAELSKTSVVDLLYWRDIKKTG
# Assays:
# AP-B4C66 = test: Binding of AP-B4C66 to COS-7 cells expressing NgR mutants; design: key: ++: WT level; +: weaker than wild type; trace binding; −: no binding; conditions: AP-B4C66 0.5 nM; level of binding compared to wild type NgR
# Description: (§1) FIG. 4A. […] Binding of AP or AP fused NgR ligands to COS-7 cells expressing different NgR mutants as indicated. The concentrations of ligands applied were: AP, 30 nM; AP-Ng66, 5 nM; AP-Ng33, 10 nM; AP-B4C, 10 nM; AP-B4C66, 0.5 nM; AP-Lingo-1, 10 nM; AP-OMGP, 10 nM; AP-MAG, 30 nM. These concentrations are close to the binding Kd of these proteins to NgR so that any […] is reflected linearly in staining.
# (§2) FIG. 4B. AP binding of NgR ligands to NgR mutants expressed as percentage of wild type NgR. AP after incubation with AP fused ligands, AP bound to COS-7 cells expressing NgR or NgR mutants were stained and measured.
# (§3) To better define how multiple ligands bind to the NgR protein, we examined a series of Ala-substituted NgR for ligand binding activity. NgR mutagenesis was done using the Quick Change Multisite Directed Mutagenesis Kit (Stratagene catalog #200514). Human NgR1 was used as a template. Ala substitutions were generated for each of the charged residues predicted to be solvent accessible at the surface of the ligand binding domain of NgR (Barton, W. A., et al., Embo J. 22:3291-3302 (2003); He, X. L., et al., Neuron 38:177-185 (2003)). We generated mutants in which 1-8 surface residues localized within 5 A of one another were Ala-substituted. Because of the coiling nature of the LRR structure, as residues juxtaposed on the protein surface are commonly separated by approximately 25 residues in the primary structure. In addition to mutations in specific charged surface patches, other mutations were targeted to glycosylation sites and to regions predicted to be involved in ligand binding based on the NgR structure (Barton, W. A., et al., Embo J. 22:3291-3302 (2003); He, X. L., et al., Neuron 38:177-185 (2003)). In addition, a variant corresponding to a human polymorphism was examined (D259N). None of the mutations altered the Leu residues that define the LRR structure itself or the Cys residues critical in the amino and carboxyl terminal capping domains. The vast majority of such Ala surface substitution mutants were expressed as immunoreactive polypeptides with a molecular weight and an expression level indistinguishable from wild type NgR (FIG. 4C and data not shown).
# (§4) This collection of 74 individual NgR mutants was interrogated for AP-Nogo-66, AP-Amino-Nogo-B4C, AP-MAG, AP-OMgp, and AP-Lingo-1 binding. AP-Nogo66, AP-MAG, AP-OMGP and AP-Lingo-1 constructs are described elsewhere (Fournier, A. E., et al., Nature 409:341-346 (2001); Liu, B. P., et al., Science 297:1190-1193 (2002); Mi, S., et al., Nat. Neurosci. 7:221-228 (2004); Wang, K. C., et al., Nature 417:941-944 (2002b)). The properties of the NgR mutants fell into one of three major categories (Table II and FIG. 5). A number of Ala substituted NgR polypeptides bound all of the ligands at wild type levels. […] In addition, a significant extent of the concave surface is dispensable for ligand binding.
# (§5) Binding of Alanine substituted NgR mutants to NgR ligands were compared to wild type NgR and the levels of binding were categorized as ++ (WT level), + (weaker than wild type), tr (trace binding), − (no binding), N/A (not determined). NgR mutant proteins were also subjected to SDS-PAGE and probed by anti-NgR antibodies. Mutants with expression level similar to WT NgR were labeled as “y”.
# AP-OMgp = test: Binding of AP-OMgp to COS-7 cells expressing NgR mutants; design: key: ++: WT level; +: weaker than wild type; trace binding; −: no binding; conditions: AP-OMGP 10 nM; level of binding compared to wild type NgR
# Description: as §1, §2, §3, §4, §5
# AP-Nogo66 = biological target: T1, AP-Nogo66; test: Binding of AP-Nogo66 to COS-7 cells expressing NgR mutants; design: key: ++: WT level; +: weaker than wild type; trace binding; −: no binding; conditions: AP-Ng66 5 nM; level of binding compared to wild type NgR
# Description: as §1, §2, §3, §4, §5
# AP-MAG = test: Binding of AP-MAG to COS-7 cells expressing NgR mutants; design: key: ++: WT level; +: weaker than wild type; trace binding; −: no binding; conditions: AP-MAG 30 nM; level of binding compared to wild type NgR
# Description: as §1, §2, §3, §4, §5
# AP-Lingo-1 = biological target: T2, AP-Lingo-1; test: Binding of AP-Lingo-1 to COS-7 cells expressing NgR mutants; design: key: ++: WT level; +: weaker than wild type; trace binding; −: no binding; conditions: AP-Lingo-1 10 nM; level of binding compared to wild type NgR
# Description: as §1, §2, §3, §4, §5
# AP-B4C = biological target: T3, AP-B4C; test: Binding of AP-B4C to COS-7 cells expressing NgR mutants; design: key: ++: WT level; +: weaker than wild type; trace binding; −: no binding; conditions: AP-B4C 10 nM; level of binding compared to wild type NgR
# Description: as §1, §2, §3, §4, §5
# NgR ligands = test: Binding of alanine substituted NgR mutants to NgR ligands, summary categories; conditions: AP-Nogo66, AP-B4C, AP-B4C66, AP-Lingo-1, AP-OMgp and AP-MAG; compared to wild type NgR
# Source text: as §3, §4
# Alanine substituted NgR mutants were tested for their binding to AP-Nogo66, AP-B4C, AP-B4C66, AP-Lingo-1, AP-OMgp and AP-MAG and they fall into three categories: (1) Mutants that lose binding to all NgR ligands. (2) Mutants that still maintain binding to all NgR ligands. […] The D259N mutant is an asparagine substitution to mimic a human polymorphism.
molecule,measurement,setting,value
"WT: wild type human NgR1 expressed in COS-7 cells (protein, UniProt Q9BZR6 27-447, looked up) Reticulon-4 receptor: CPGACVCYNEPKVTTSCPQQGLQAVPVGIPAASQRIFLHGNRISHVPAASFRACRNLTILWLHSNVLARIDAAAFTGLALLEQLDLSDNAQLRSVDPATFHGLGRLHTLHLDRCGLQELGPGLFRGLAALQYLYLQDNALQALPDDTFRDLGNLTHLFLHGNRISSVPERAFRGLHSLDRLLLHQNRVAHVHPHAFRDLGRLMTLYLFANNLSALPTEALAPLRALQYLRLNDNPWVCDCRARPLWAWLQKFRGSSSEVPCSLPQRLAGRDLKRLAANDLQGCAVATGPYHPIWTGRATDEEPLGLPKCCQPDAADKASVLEPGRPASAGNALKGRVPPGDSPPGNGSGPRHINDSPFGTLPGSAEPPLTAVRPEGSEPPGFPTSGPRRRPGCSRKNRTRSHCRLGQAGSGGGGTGDSEGS",B4C-66,AP-B4C66,++
same,OMgp,AP-OMgp,++
same,Ng66,AP-Nogo66,++
same,MAG,AP-MAG,++
same,Lingo-1,AP-Lingo-1,++
same,B4C,AP-B4C,++
"256, 259: human NgR1 mutant, listed residues mutated to alanine (protein) CPGACVCYNEPKVTTSCPQQGLQAVPVGIPAASQRIFLHGNRISHVPAASFRACRNLTILWLHSNVLARIDAAAFTGLALLEQLDLSDNAQLRSVDPATFHGLGRLHTLHLDRCGLQELGPGLFRGLAALQYLYLQDNALQALPDDTFRDLGNLTHLFLHGNRISSVPERAFRGLHSLDRLLLHQNRVAHVHPHAFRDLGRLMTLYLFANNLSALPTEALAPLRALQYLALNANPWVCDCRARPLWAWLQKFRGSSSEVPCSLPQRLAGRDLKRLAANDLQGCAVATGPYHPIWTGRATDEEPLGLPKCCQPDAADKASVLEPGRPASAGNALKGRVPPGDSPPGNGSGPRHINDSPFGTLPGSAEPPLTAVRPEGSEPPGFPTSGPRRRPGCSRKNRTRSHCRLGQAGSGGGGTGDSEGSGALPSLTCSLTPLGLALVLWTVLGPC",ligand binding category of NgR mutant (Table II),NgR ligands,Differential binding
same,B4C-66,AP-B4C66,++
same,OMgp,AP-OMgp,+
same,Ng66,AP-Nogo66,++
same,MAG,AP-MAG,−
same,Lingo-1,AP-Lingo-1,++
same,B4C,AP-B4C,++
"78, 81: human NgR1 mutant, listed residues mutated to alanine (protein) CPGACVCYNEPKVTTSCPQQGLQAVPVGIPAASQRIFLHGNRISHVPAASFAACANLTILWLHSNVLARIDAAAFTGLALLEQLDLSDNAQLRSVDPATFHGLGRLHTLHLDRCGLQELGPGLFRGLAALQYLYLQDNALQALPDDTFRDLGNLTHLFLHGNRISSVPERAFRGLHSLDRLLLHQNRVAHVHPHAFRDLGRLMTLYLFANNLSALPTEALAPLRALQYLRLNDNPWVCDCRARPLWAWLQKFRGSSSEVPCSLPQRLAGRDLKRLAANDLQGCAVATGPYHPIWTGRATDEEPLGLPKCCQPDAADKASVLEPGRPASAGNALKGRVPPGDSPPGNGSGPRHINDSPFGTLPGSAEPPLTAVRPEGSEPPGFPTSGPRRRPGCSRKNRTRSHCRLGQAGSGGGGTGDSEGSGALPSLTCSLTPLGLALVLWTVLGPC",ligand binding category of NgR mutant (Table II),NgR ligands,Differential binding
same,B4C-66,AP-B4C66,++
same,OMgp,AP-OMgp,++
same,Ng66,AP-Nogo66,++
same,Lingo-1,AP-Lingo-1,tr
same,B4C,AP-B4C,++
"36, 38, 61: human NgR1 mutant, listed residues mutated to alanine (protein) CPGACVCYNAPAVTTSCPQQGLQAVPVGIPAASQAIFLHGNRISHVPAASFRACRNLTILWLHSNVLARIDAAAFTGLALLEQLDLSDNAQLRSVDPATFHGLGRLHTLHLDRCGLQELGPGLFRGLAALQYLYLQDNALQALPDDTFRDLGNLTHLFLHGNRISSVPERAFRGLHSLDRLLLHQNRVAHVHPHAFRDLGRLMTLYLFANNLSALPTEALAPLRALQYLRLNDNPWVCDCRARPLWAWLQKFRGSSSEVPCSLPQRLAGRDLKRLAANDLQGCAVATGPYHPIWTGRATDEEPLGLPKCCQPDAADKASVLEPGRPASAGNALKGRVPPGDSPPGNGSGPRHINDSPFGTLPGSAEPPLTAVRPEGSEPPGFPTSGPRRRPGCSRKNRTRSHCRLGQAGSGGGGTGDSEGSGALPSLTCSLTPLGLALVLWTVLGPC",ligand binding category of NgR mutant (Table II),NgR ligands,Differential binding
same,B4C-66,AP-B4C66,++
same,OMgp,AP-OMgp,+
same,Ng66,AP-Nogo66,+
same,MAG,AP-MAG,tr
same,Lingo-1,AP-Lingo-1,tr
same,B4C,AP-B4C,++
"95, 97, 122: human NgR1 mutant, listed residues mutated to alanine (protein) CPGACVCYNEPKVTTSCPQQGLQAVPVGIPAASQRIFLHGNRISHVPAASFRACRNLTILWLHSNVLAAIAAAAFTGLALLEQLDLSDNAQLRSVAPATFHGLGRLHTLHLDRCGLQELGPGLFRGLAALQYLYLQDNALQALPDDTFRDLGNLTHLFLHGNRISSVPERAFRGLHSLDRLLLHQNRVAHVHPHAFRDLGRLMTLYLFANNLSALPTEALAPLRALQYLRLNDNPWVCDCRARPLWAWLQKFRGSSSEVPCSLPQRLAGRDLKRLAANDLQGCAVATGPYHPIWTGRATDEEPLGLPKCCQPDAADKASVLEPGRPASAGNALKGRVPPGDSPPGNGSGPRHINDSPFGTLPGSAEPPLTAVRPEGSEPPGFPTSGPRRRPGCSRKNRTRSHCRLGQAGSGGGGTGDSEGSGALPSLTCSLTPLGLALVLWTVLGPC",ligand binding category of NgR mutant (Table II),NgR ligands,Differential binding
same,B4C-66,AP-B4C66,+
same,OMgp,AP-OMgp,tr
same,Ng66,AP-Nogo66,+
same,MAG,AP-MAG,tr
same,Lingo-1,AP-Lingo-1,−
same,B4C,AP-B4C,+
